This passage reports Kd, ELISA signal and FACS percent gated results from patent US20220306762A1 (CRYSTAL BIOSCIENCE, published 2022).

Test [1] has as its target T1, His-tagged human CD38 (ACRO Biosystems CD8-H5224) (human, UniProt P28907 43-300).
T1 construct: bought protein; used for ELISA coating and as SPR analyte; not shown: His tag
The test can be described thus: SPR (second run), His-tagged CD38.

For test [2], the target named is T2, His-tagged cynomolgus monkey CD38 (ACRO Biosystems, CD8-05223 [sic]) (cynomolgus monkey, UniProt Q5VAN0 43-301).
T2 construct: bought protein; used for ELISA coating and as SPR analyte; not shown: His tag
The test can be described thus: SPR (second run), His-tagged CD38.

Test [3] concerns the target T3, His-tagged mouse CD38 (ACRO Biosystems CD8-M5223) (mouse, UniProt P56528 45-304).
T3 construct: bought protein; used for ELISA coating and as SPR analyte; also called Murine; not shown: His tag
T3 sequence (looked up): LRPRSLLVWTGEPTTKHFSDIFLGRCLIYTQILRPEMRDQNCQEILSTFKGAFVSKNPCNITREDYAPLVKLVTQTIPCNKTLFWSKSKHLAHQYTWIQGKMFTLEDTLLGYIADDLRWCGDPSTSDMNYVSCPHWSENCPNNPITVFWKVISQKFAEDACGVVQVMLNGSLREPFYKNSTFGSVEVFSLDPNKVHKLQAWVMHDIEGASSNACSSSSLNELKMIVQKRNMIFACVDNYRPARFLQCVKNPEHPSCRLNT
The test can be described thus: SPR (second run), His-tagged CD38.

The target in test [4] is T1, His-tagged human CD38 (ACRO Biosystems …). Description: ELISA, 1 ug/ml scFv-Fc, coated His-tagged CD38.
Test [5] concerns the target T2, His-tagged cynomolgus monkey CD38 (ACRO …). Description: ELISA, 1 ug/ml scFv-Fc, coated His-tagged CD38. In general terms: An ELISA detects its analyte on a solid surface through an enzyme-linked reagent.
For test [6], the target named is T3, His-tagged mouse CD38 (ACRO Biosystems …). Description: ELISA, 1 ug/ml scFv-Fc, coated His-tagged CD38.
The target of test [7] is T4, Human CD38 on transiently transfected Expi293 cells (Origene SC321273) (human, UniProt P28907 1-300).
T4 construct: whole, on cells
Description: flow cytometry, 10 ug/ml scFv-Fc, transfected Expi293 cells. Background: In flow cytometry, cells or beads pass a laser one at a time.

The target of test [8] is T5, Murine CD38 on transiently transfected Expi293 cells (Origene MC208001) (murine, UniProt P56528 1-304).
T5 construct: whole, on cells
T5 sequence (looked up): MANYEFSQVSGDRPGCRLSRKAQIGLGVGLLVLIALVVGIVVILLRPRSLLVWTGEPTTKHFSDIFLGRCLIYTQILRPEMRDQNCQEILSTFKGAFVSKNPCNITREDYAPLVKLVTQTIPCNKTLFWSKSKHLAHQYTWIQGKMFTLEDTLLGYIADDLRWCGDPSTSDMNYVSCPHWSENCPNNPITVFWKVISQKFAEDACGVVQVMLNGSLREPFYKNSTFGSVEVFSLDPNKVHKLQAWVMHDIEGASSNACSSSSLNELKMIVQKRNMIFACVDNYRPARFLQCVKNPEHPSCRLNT
Described as above.

B1: 40617p1.2.B4 (scFv, V domains shown)
VH: EVQLLESGGGFVQPGGSLRLSCAASGFTFTNYVMNWVRQAPGKGLEWVSSISISGGRYTWYADSVKGRFTISRDNSRNTLYLQMNSLRAEDTAIYYCAREMNTYSFPMDVWGQGTTVTVSS
VL: EIVLTQSPGTLSLSPGERATLNCRASQNVRSDLAWYQQKPGQAPRLLIYDASNRATGIPDRFSGSGSGTDFSLTISRLEPEDFAVYYCQQYYDWPPYTFGGGTKVEIK
As usually defined, the Kd is the concentration at which binding is half-saturated. In the case of B1, the Kd was found to be 36.1 nM in test [1], 149 nM in test [2] and 3.33 nM in test [3].

B2: 40769p1.2.C9 (scFv, V domains shown)
VH: EVQLLESGGGLVQPGGSLRLSCAASGFTFSSHDMNWVRQAPGKGLEWVSTITTTGGTYYTDSVKGRFTISRDNSKNTIYLQMTSLRAEDTAVYYCTKHYSMDVWGQGTTVTVSS
VL: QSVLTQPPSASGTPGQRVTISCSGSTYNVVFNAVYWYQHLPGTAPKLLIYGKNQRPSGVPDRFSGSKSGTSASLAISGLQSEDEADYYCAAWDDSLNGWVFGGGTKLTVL
On to B2, for which the Kd in test [1] amounted to 96.2 nM; in test [2], 200 nM; in test [3] it was 55 nM.

B3: 40769p2.2.A5 scFv-Fc (scFv, V domains shown)
VH: EVQLLESGGGLIQPGGSLRLSCTASGFDFSSYGMHWVRQAPGKGLEWVGIISDTGGTTYYGDSVKGRFTISRDNSKSTLYLQMNSLRAEDTALYYCASYIMDVWGQGTTVTVSS
VL: QSVLTQPPSASGTPGQRVTISCSGSNSNVGDNAVYWYQQLPGTAPKLLFYGTNRRPSGVPDRFSGSKSGTSASLAISGLQSEDEADYYCAAWDDSLNAWVFGGGTKLTVL
notes: scFv-Fc
As for B3, the ELISA signal in test [4] worked out at 1.76; in test [5], 1.6; in test [6], 1.27. Moreover, the FACS percent gated in test [7] stood at 90.5%; in test [8] it was 35.5%.

B4: 40769p2.2.E12 scFv-Fc (scFv, V domains shown)
VH: EVQLLESGGGLIQPGGSLRLSCTASGFDFSSYGMHWVRQAPGKGLEWVGIISDTGGTTYYGDSVKGRFTISRDNSKSTLYLQMNSLRAEDTALYYCASYIMDVWGQGTTVTVSS
VL: QSVLTQPPSASGTPGQRVTISCSGSNSNVGDNAVYWYQQPPGTAPKLLFYGTNRRPSGVPDRFSGSKSGTSASLAISGLQSEDEADYYCAAWDDSLNAWVFGGGTKLTVL
notes: scFv-Fc
For the molecule B4, the ELISA signal stood at 1.67 in test [4], 1.59 in test [5] and 1.26 in test [6]. Also, the values for the FACS percent gated in test [7] and in test [8] were 91.6% and 35.9%, respectively.

B5: 40769p1.1.B12 (scFv, V domains shown)
VH: EVQLLESGGGLIQPGGSLRLSCTASGFDFSSYGMHWVRQAPGKGLEWVGIISDSGGTTYYADSVKGRFTISRDNSKNTMYLQMNSLRAEDTALYYCASYIMDVWGQGITVTVSS
VL: QSVLTQPPSASGTPGQRVTISCSGSSSNVGGNSVYWYQQLPGTAPKLLFYGNHRRPSGVPDRFSGSKSGTSASLAISGLQSEDEADYYCAVWDDSLNAWVFGGGTKLTVL
Consider B5, for which the results for the Kd in test [1], in test [2] and in test [3] were 91 nM, 582 nM and 249 nM, respectively.

B6: 40769p2.2.D3 scFv-Fc (scFv, V domains shown)
VH: EVQLLESGGGLIQPGGSLRLSCTASGFDFSSYGMHWVRQAPGKGLEWVGIISDSGGTTYYADSVKGRFTISRDNSKNTLYLQMNSLRAEDTALYYCASYIMDVWGQGITVTVSS
VL: QSVLTQPPSASGTPGQRVTISCSGSNSNVGVNSVYWYQQLPGTAPKLLIYGSGRRPSGVPDRFSVSKSGTSASLAISGLQSEDEADYYCAAWDGGLNAWVFGGGTKLTVL
notes: scFv-Fc
Consider B6, for which the figures for the ELISA signal in test [4] and in test [5] were 1.48 and 1.34, respectively. In addition, the FACS percent gated in test [7] came out at 83.5%; in test [8] it was 13.1%.

B7: 40769p1.2.B10 (scFv, V domains shown)
VH: EVQLLESGGGLVQPGGSLRLSCPASGFDFSSYWMTWVRQAPGKGLEWVSTITDSGGRAWYADSVRGRFTISRDNSKNTLYLQMNSLRAEDTAVYYCARDTPKTYYYYAMDVWGQGTTVTV
VL: QSALTQPPSASGTPGQRVTISCSGSSSNIQYSYVSWYQQLPGTAPKLLIYNNVQRPSGVPDRFSGSKSGTSASLAISGLQSEDEADYYCATWDESLLGLWVFGGGTKLTVL
Consider B7, for which the Kd amounted to 2.49 nM in test [1], 24.3 nM in test [2] and 1660 nM in test [3].

B8: 40617p1.2.H1 (scFv, V domains shown)
VH: EVQLLESGGGLVQPGGSLRLSCAASGFTFTNYWMTWVRQAPGKGLEWVSAISSYGGNYMYYADSVKGRFTISRDNSENTLYLQMNSLRAEDTAVYYCAKDWDDGMDVWGQGTTVTVSS
VL: EIVMTQSPAVLSVSPGERATLSCRASQTVGSKLAWYQQKPGQAPRLLIYGVSTRAAGIPDRFSGSGSGTDFTLTISSLQSEDFAVYYCQQYYDLPPYSFGGGTKVEIK
B8: the Kd stood at 9.71 nM in test [1], 33.8 nM in test [2] and 73 nM in test [3].

B9: 40769p2.2.A6 scFv-Fc (scFv, V domains shown)
VH: EVQLLESGGGLVQPGGSLRLSCAASGFTFSDYEMNWVRQAPGKGLEWVSAISITGSWTYYADSVKGRFTISRDNSENTLYLQMNNLRAEDTAVYYCANYKSYYGMDVWGRGTTVTVSS
VL: QSVLTQPPSASGTPGQRVTISCSGSRSNIRNNLVNWYQQLPGTAPKLLIYNTQRPSGVPDRFSGSKSGTSASLAISGLQSEDEADYYCASWDASLNAWVFGGGTKLTVL
notes: scFv-Fc
Take B9: the ELISA signal in test [4] came out at 1.75; in test [5] it was 1.62; in test [6], 0.043. The FACS percent gated in test [7] was determined as 92.2%; in test [8] it was 2.43%.

B10: 40769p2.2.C11 scFv-Fc (scFv, V domains shown)
VH: EVQLLESGGGLVQPGGSLRLSCAASGFTFSDYEMNWVRQAPGKGLEWVSSISITGSWTYYADSVKGRFTISRDNSKNTLYLQMNNLRAEDTAVYYCANYKSYYGMDVWGHGTTVTVSS
VL: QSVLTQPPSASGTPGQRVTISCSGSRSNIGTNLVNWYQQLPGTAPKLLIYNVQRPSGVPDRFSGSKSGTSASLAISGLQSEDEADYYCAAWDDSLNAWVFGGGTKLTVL
notes: scFv-Fc
For the molecule B10, the ELISA signal in test [4] amounted to 1.53; in test [5] it was 1.52; in test [6], 0.043. The FACS percent gated in test [7] was found to be 92.8%; in test [8], 1.26%.

B11: 40769p2.2.D9 scFv-Fc (scFv, V domains shown)
VH: EVQLLESGGGLVQPGGSLRLSCAGSGFTFSDYWMSWVRQAPGKGLEWVSTISITAGIIYYADSVKGRFTISRDNSKNTLYLQMNSLRAEDTAVYYCAKDNWNDYYGMDVWGQGTTVTVSS
VL: QSVLTQPPSASGTPGQRVTVSCSGSRSNIRDNYVYWYQQVPGTAPKLLIYKDDQRPSGVPDRFSGSKSGTSASLVISGLQSEDEADYYCATWDGSLNARVFGGGTKLTVL
notes: scFv-Fc
With B11, the ELISA signal was determined as 1.51 in test [4], 1.47 in test [5] and 0.043 in test [6]. The FACS percent gated in test [7] came to 92.6%; in test [8], 2.87%.

B12: 40769p2.2.A9 scFv-Fc (scFv, V domains shown)
VH: EVQLLESGGGLVQPGGSLRLSCTASGITFSRFNMFWVRQAPGKGLEFVASIRDDGSWTYYADSVKGQFTISRDNSKNTLYLQMNSLRAEDTAVYYCAKDYNSKDFIYHYVMDVWGQGTTVTVSS
VL: QSVLTQPPSASGTPGQRVTISCSGRNSNIGNNVVNWYQQLPGTAPKLLIYRNQERPSGVPDRFSGSKSGTSASLAISGLQSEDEADYYCSTWDDSLNGWVFGGGTKLTVL
notes: scFv-Fc
In the case of B12, the ELISA signal came to 1.55 in test [4], 1.67 in test [5] and 0.044 in test [6]. Moreover, the FACS percent gated in test [7] is 91.2%; in test [8] it was 1.57%.

B13: 40769p1.1.B10 (scFv, V domains shown)
VH: EVQLLESGGGLVQPGGSLRLSCTASGITFSRFNMFWVRQAPGKGLEFVASIRDDGSWTYYADSVKGRFTISRDNSKNTLYLQMNSLRAEDTAVYYCAKDYNSKDFIYHYVMDVWGQGTTVTVSS
VL: QSVLTQPPSASGTPGQRVTISCSGRNSNIGNNVVNWYQQLPGTAPKLLIYRNQERPSGVPDRFSGSKSGTSASLAISGLQSEDEADYYCSTWDDSLNGWVFGGGTKLTVL
In the case of B13, the Kd in test [1] worked out at 29.6 nM; in test [2], 6030 nM; in test [3], 501 nM.
